Patent publication US20140227280A1 (CENTRE NATIONAL DE LA RECHERCHE SCIENTIFIQUE, published 2014)

B1: MCM5 (other, mouse, UniProt P49718 2-734, looked up)
chain: SGFDDPGIFYSDSFGGDPGAEEGQARKSQLQRRFKEFLRQYRVGTDRTGFTFKYRDELKRHYNLGEYWIEVEMEDLASFDEELADHLHKQPAEHLQLLEEAAKEVADEVTRPRPAGDELLQDIQVMLKSDASPSSIRILKSDMMSHLVKIPGIIISASAVRAKATRISIQCRSCHNTLTNIAMRPGLEGYALPRKCNMDQAGRPKCPLDPYFIMPDKCKCVDFQTLKLQELPDAVPHGEMPRHMQLYCDRYLCDKVVPGNRVTIMGIYSIKKFGLNPSKGRDRVGVGIRSSYIRVLGIQVDTDGSGRSFAGSVSPQEEEEFRRLAALPNIYELISKSISPSIFGGMDMKKAIACLLFGGSRKRLPDGLTRRGDINLLMLGDPGTAKSQLLKFVEKCSPIGVYTSGKGSSAAGLTASVIRDPSSRNFIMEGGAMVLADGGVVCIDEFDKMREDDRVAIHEAMEQQTISIAKAGITTTLNSRCSVLAAANSVFGRWDETKGEDNIDFMPTILSRFDMIFIVKDEHNEERDMMLAKHVMTLHVSALTQTQAVEGEIDLAKMKKFIAYCRARCGPRLSAEAAEKLKNRYIIMRSGARQHERDSDRRSSIPITVRQLEAIVRIAEALSKMKLQPFATEADVEEALRLFQVSTLDAALSGNLSGVEGFTTQEDQEMLSRIEKQLKRRFAIGSQVSEHSIVQDFTKQKYPEHAIRKVLQLMLRRGEIQHRMQRKVLYRLK
notes: Detected by western blot (sc-22780) in the immunoprecipitates from mouse testes extracts; also called member of the MCM2-7 complex
B2: mouse MCM8 protein (other)
chain: MSGAYRGRGFGRGRFQSWKRGRGGGNFSGRWRERENRVDLNEASGKHASAQASQPLLQQSTLDQFIPYKGWKLYFSEVYSNNSPFIEKIQAFEKFFTRHIDLYDKDEIERKGSILVDFKELTKADEITNLIPDIENALRDAPEKTLACMGLAIHQVLTKDLERHAAELQAQEGLSNGGETMVNVPHIYARVYNYEPLTHLKNIRATCYGKYISIRGTVVRVSNIKPLCTNMAFQCAACGEIQSFPLPDGKYTLPTKCPVPACRGRSFAPLRSSPLTVTLDWQLIKIQELMSDAQREAGRIPRTIECELVHDLVDSCVPGDTVTVTGIVKVSNSEEGSRNKNDKCMFLLYIEANSVSNSKGPKAQTAEDGCKHGTLMEFSLKDLYAIREIQAEENLLKLVVNSLCPVIFGHELVKAGLTLALFGGSQKYADDKNRIPIRGDPHVLIVGDPGLGKSQMLQAACNVAPRGVYVCGNTTTSSGLTVTLSKDSSSGDFALEAGALVLGDQGICGIDEFDKMGNQHQALLEAMEQQSISLAKAGVVCSLPARTSIVAAANPVGGHYNKARTVSENLKMGSALLSRFDLVFILLDTPNEQHDHLLSEHVIAIRAGKQKAVSSATVTRVLSQDSNTSVLEVVSEKPLSERLKVAPGEQTDPIPHQLLRKYIGYARQYVHPRLSTDAAQALQDFYLELRKQSQRVGSSPITTRQLESLIRLTEARARLELREEATREDAEDIIEIMKHSMLGTYSDEFGNLDFERSQHGSGMSNRSTAKRFISALNSIAERTYNNIFQYHQLRQIAKELNIQVADFENFIGSLNDQGYLLKKGPKIYQLQTM
notes: Endogenous protein in mouse testes extracts and MEF cell extracts

Columns and labels:
mouse MCM8 protein = biological target: B2; test: co-immunoprecipitation from mouse testes extracts, western blot (FIG. 18A)
From the text: (§1) FIG. 18A represents immunoprecipitations of MCM8 (IP anti-MCM8; lane C) and MCM9 (IP anti-MCM9; lane D) from testes extracts blotted against MCM9 (panel 1), MCM8 (panel 2), MCM2 (panel 3) and MCM5 (panel 4). To normalize the loading, IgGs of each IP are also shown (panel 5).

MCM2 = biological target: T1, MCM2 (mouse, UniProt P97310 2-904); test: as above
T1 construct: Detected by western blot (sc-9839) in the immunoprecipitates from mouse testes extracts; also called member of the MCM2-7 complex
T1 sequence (P97310 2-904 limits assumed): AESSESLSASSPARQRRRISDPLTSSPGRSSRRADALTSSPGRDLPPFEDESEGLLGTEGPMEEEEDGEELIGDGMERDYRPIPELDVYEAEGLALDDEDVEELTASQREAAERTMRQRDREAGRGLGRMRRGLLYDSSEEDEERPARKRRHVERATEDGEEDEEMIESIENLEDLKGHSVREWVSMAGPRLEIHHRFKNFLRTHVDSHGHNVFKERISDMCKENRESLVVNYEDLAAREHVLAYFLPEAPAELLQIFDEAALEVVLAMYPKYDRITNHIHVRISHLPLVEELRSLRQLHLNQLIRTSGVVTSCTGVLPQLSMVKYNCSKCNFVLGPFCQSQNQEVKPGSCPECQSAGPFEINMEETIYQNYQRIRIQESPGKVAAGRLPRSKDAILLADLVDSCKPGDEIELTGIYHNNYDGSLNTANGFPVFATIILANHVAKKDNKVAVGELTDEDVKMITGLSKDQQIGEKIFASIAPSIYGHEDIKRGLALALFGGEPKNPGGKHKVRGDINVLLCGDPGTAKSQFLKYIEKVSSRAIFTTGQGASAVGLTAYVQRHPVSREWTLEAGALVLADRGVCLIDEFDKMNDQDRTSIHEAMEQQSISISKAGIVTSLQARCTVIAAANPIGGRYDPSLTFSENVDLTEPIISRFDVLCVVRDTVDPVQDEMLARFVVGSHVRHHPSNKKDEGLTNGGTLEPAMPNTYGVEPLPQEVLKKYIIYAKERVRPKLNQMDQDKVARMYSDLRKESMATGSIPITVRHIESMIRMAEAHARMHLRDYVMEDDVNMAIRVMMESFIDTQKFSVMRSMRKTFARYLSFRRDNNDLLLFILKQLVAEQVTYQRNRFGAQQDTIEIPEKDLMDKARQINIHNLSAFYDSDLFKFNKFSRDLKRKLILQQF
From the text: as §1

binding result (mouse MCM8 protein) | binding result (MCM2) | Binder
no binding | – | B1
– | no binding | B2
